This note sets out measurements from paper PMC4577081 (2015).

This assay addresses human CD47/his fusion protein (extracellular domain of human CD47 fused to His-tag) (human). The assay can be described thus: SPR; monomeric hCD47. (Surface plasmon resonance follows binding to a sensor surface in real time, without labels.)

B1: mouse anti-human CD47 monoclonal antibody 5F9 (antibody, V domains shown)
VH: QVQLQQPGAELVKPGASVMMSCKASGYTFTNYNMHWVKQTPGQGLEWIGTIYPGNDDTSYNQKFKDKATLTADKSSSAAYMQLSSLTSEDSAVYYCARGGYRAMDYWGQGTSVTVSS
VL: DVLMTQTPLSLPVSLGDQASISCRSSQSIVYSNGNTYLGWYLQKPGQSPKLLIYKVSNRFSGVPDRFSGSGSGTDFTLKISRVEAEDLGVYHCFQGSHVPYTFGGGTKVEIK
modifications: biotin-labeled in the competition ELISA (site not stated)
By Kd is commonly meant the constant that tells how readily two partners part at equilibrium. A high value points to a looser complex. Consider B1, for which binding was characterised by a dissociation constant (Kd) of 19.9 nM.
